The source of these data is the supplement of paper PMC11246515.

± gives the standard deviation of the averaged measurements.

A short description of this data set: total protein half-life in vivo (active degradation + dilution); higher = more stable protein.
Where [1] appears, read: wild type E. coli NCM3722, growth: C-lim chemostat, doubling time 3 h.
Where [2] appears, read: wild type E. coli NCM3722, growth: C-lim chemostat, doubling time 6 h.
[3] abbreviates: wild type E. coli NCM3722, growth: C-lim chemostat, doubling time 12 h.
Where [4] appears, read: wild type E. coli NCM3722, growth: N-lim chemostat, doubling time 6 h.
Where [5] appears, read: E. coli NCM3722 delta-clpP delta-lon delta-hslV, growth: N-lim chemostat, doubling time 6 h.
Where [6] appears, read: E. coli NCM3722 delta-clpP, growth: N-lim chemostat, doubling time 6 h.
Setting [7] is: E. coli NCM3722 delta-hslV, growth: N-lim chemostat, doubling time 6 h.
Setting [8] is: E. coli NCM3722 delta-lon, growth: N-lim chemostat, doubling time 6 h.
Setting [9] is: E. coli NCM3722 delta-smpB, growth: N-lim chemostat, doubling time 6 h.
The mark [10] stands for this setting: wild type E. coli NCM3722, growth: P-lim chemostat, doubling time 6 h.
Setting [11] is: wild type E. coli NCM3722, growth: P-lim chemostat, doubling time 12 h.
Where [12] appears, read: wild type E. coli NCM3722, growth: N-lim chemostat, doubling time 12 h.

Turning to “MSAQINNIRPEFDREIVDIVDYVMNYEISSKVAYDTAHYCLLDTLGCGLEALEYPACKKLLGPIVPGTVVPNGVRVPGTQFQLDPVQAAFNIGAMIRWLDFNDTWLAAEWGHPSDNLGGILATADWLSRNAVASGKAPLTMKQVLTAMIKAHEIQGCIALENSFNRVGLDHVLLVKVASTAVVAEMLGLTREEILNAVSLAWVDGQSLRTYRHAPNTGTRKSWAAGDATSRAVRLALMAKTGEMGYPSALTAPVWGFYDVSFKGESFRFQRPYGSYVMENVLFKISFPAEFHSQTAVEAAMTLYEQMQAAGKTAADIEKVTIRTHEACIRIIDKKGPLNNPADRDHCIQYMVAIPLLFGRLTAADYEDNVAQDKRIDALREKINCFEDPAFTADYHDPEKRAIANAITLEFTDGTRFEEVVVEYPIGHARRRQDGIPKLVDKFKINLARQFPTRQQQRILEVSLDRARLEQMPVNEYLDLYVI”, the “total protein half-life in vivo” value reads like this: under setting [1], 3.04 ± 0.28 h; under setting [2], 4.21 ± 0.07 h; under setting [3], 8.53 ± 1 h; under setting [4], 5.98 h.

In the case of “MTTLKLDTLSDRIKAHKNALVHIVKPPVCTERAQHYTEMYQQHLDKPIPVRRALALAHHLANRTIWIKHDELIIGNQASEVRAAPIFPEYTVSWIEKEIDDLADRPGAGFAVSEENKRVLHEVCPWWRGQTVQDRCYGMFTDEQKGLLATGIIKAEGNMTSGDAHLAVNFPLLLEKGLDGLREEVAERRSRINLTVLEDLHGEQFLKAIDIVLVAVSEHIERFAALAREMAATETRESRRDELLAMAENCDLIAHQPPQTFWQALQLCYFIQLILQIESNGHSVSFGRMDQYLYPYYRRDVELNQTLDREHAIEMLHSCWLKLLEVNKIRSGSHSKASAGSPLYQNVTIGGQNLVDGQPMDAVNPLSYAILESCGRLRSTQPNLSVRYHAGMSNDFLDACVQVIRCGFGMPAFNNDEIVIPEFIKLGIEPQDAYDYAAIGCIETAVGGKWGYRCTGMSFINFARVMLAALEGGHDATSGKVFLPQEKALSAGNFNNFDEVMDAWDTQIRYYTRKSIEIEYVVDTMLEENVHDILCSALVDDCIERAKSIKQGGAKYDWVSGLQVGIANLGNSLAAVKKLVFEQGAIGQQQLAAALADDFDGLTHEQLRQRLINGAPKYGNDDDTVDTLLARAYQTYIDELKQYHNPRYGRGPVGGNYYAGTSSISANVPFGAQTMATPDGRKAHTPLAEGASPASGTDHLGPTAVIGSVGKLPTAAILGGVLLNQKLNPATLENESDKQKLMILLRTFFEVHKGWHIQYNIVSRETLLDAKKHPDQYRDLVVRVAGYSAFFTALSPDAQDDIIARTEHML”, under setting [5], the “total protein half-life in vivo” value was 4.17 h.

Turning to “MVSRKRNSVIYRFASLLLVLMLSACSALQGTPQPAPPVTDHPQEIRRDQTQGLQRIGSVSTMVRGSPDDALAEIKAKAVAAKADYYVVVMVDETIVTGQWYSQAILYRK”, the “total protein half-life in vivo” value is, setting by setting: under setting [5], 5.47 ± 0.3 h; under setting [6], 6.25 ± 1 h; under setting [7], 7.06 h; under setting [8], 6.07 ± 0.52 h; under setting [9], 5.58 ± 0.19 h; under setting [1], 3.29 ± 0.23 h. Moreover, the “total protein half-life in vivo” value stood at 11.6 ± 1.4 h under setting [3], 6.049 ± 0.053 h under setting [4], 7.24 ± 1.1 h under setting [10] and 14.8 h under setting [11].

Consider “MKVAKDLVVSLAYQVRTEDGVLVDESPVSAPLDYLHGHGSLISGLETALEGHEVGDKFDVAVGANDAYGQYDENLVQRVPKDVFMGVDELQVGMRFLAETDQGPVPVEITAVEDDHVVVDGNHMLAGQNLKFNVEVVAIREATEEELAHGHVHGAHDHHHDHDHDGCCGGHGHDHGHEHGGEGCCGGKGNGGCGCH [P0A9K9]”, for which the “total protein half-life in vivo” value reads like this: under setting [5], 4.87 ± 0.55 h; under setting [6], 4.07 ± 0.042 h; under setting [7], 3.46 ± 0.26 h; under setting [8], 4.18 ± 0.1 h; under setting [9], 3.3811 ± 0.00031 h; under setting [1], 2.88 ± 0.18 h. Moreover, the “total protein half-life in vivo” value under setting [2] was 4.63 ± 0.15 h; the “total protein half-life in vivo” value under setting [3] was 8.14 ± 0.37 h; the “total protein half-life in vivo” value under setting [4] is 3.47 ± 0.24 h; the “total protein half-life in vivo” value under setting [12] was 5.28 ± 0.73 h; the “total protein half-life in vivo” value under setting [10] was 4.54 ± 0.53 h; the “total protein half-life in vivo” value under setting [11] stood at 8.69 ± 0.066 h.

In the case of “MAKNYYDITLALAGICQSARLVQQLAHQGHCDADALHVSLNSIIDMNPSSTLAVFGGSEANLRVGLETLLGVLNASSRQGLNAELTRYTLSLMVLERKLSSAKGALDTLGNRINGLQRQLEHFDLQSETLMSAMAAIYVDVISPLGPRIQVTGSPAVLQSPQVQAKVRATLLAGIRAAVLWHQVGGGRLQLMFSRNRLTTQAKQILAHLTPEL”, the “total protein half-life in vivo” value under setting [5] turned out to be 6.52 ± 1.1 h; the “total protein half-life in vivo” value under setting [6] was 5.78 ± 0.42 h; the “total protein half-life in vivo” value under setting [7] came out at 6.17 ± 0.66 h; the “total protein half-life in vivo” value under setting [8] was 5.23 ± 0.89 h; the “total protein half-life in vivo” value under setting [9] was 6 ± 0.18 h; the “total protein half-life in vivo” value under setting [1] was 3.36 ± 0.65 h. The “total protein half-life in vivo” value amounted to 5.87 ± 0.23 h under setting [2]; 12.2 ± 2.8 h under setting [3]; 5.449 ± 0.017 h under setting [4]; 10.6 ± 0.7 h under setting [12]; 6.04 ± 0.18 h under setting [10]; 13.2 ± 0.51 h under setting [11].

For the sequence “MSDVLRPYRDLFPQIGQRVMIDDSSVVIGDVRLADDVGIWPLVVIRGDVHYVQIGARTNIQDGSMLHVTHKSSYNPDGNPLTIGEDVTVGHKVMLHGCTIGNRVLVGMGSILLDGAIVEDDVMIGAGSLVPQNKRLESGYLYLGSPVKQIRPLSDEEKAGLRYSANNYVKWKDEYLDQGNQTQP [P0A9W9]”, the “total protein half-life in vivo” value turned out to be 5.73 ± 1.7 h under setting [6]; 5.34 ± 1.1 h under setting [7]; 5.32 ± 0.6 h under setting [8]; 4.72 ± 0.17 h under setting [9]; 3.04 ± 0.14 h under setting [1]; 10 ± 2 h under setting [3]. The “total protein half-life in vivo” value runs as follows: under setting [4], 5.36 ± 0.53 h; under setting [12], 8.69 ± 0.58 h; under setting [10], 6.25 ± 0.13 h; under setting [11], 14.3 ± 1.3 h.

With “MHLRHLFSSRLRGSLLLGSLLVVSSFSTQAAEEMLRKAVGKGAYEMAYSQQENALWLATSQSRKLDKGGVVYRLDPVTLEVTQAIHNDLKPFGATINNTTQTLWFGNTVNSAVTAIDAKTGEVKGRLVLDDRKRTEEVRPLQPRELVADDATNTVYISGIGKESVIWVVDGGNIKLKTAIQNTGKMSTGLALDSEGKRLYTTNADGELITIDTADNKILSRKKLLDDGKEHFFINISLDTARQRAFITDSKAAEVLVVDTRNGNILAKVAAPESLAVLFNPARNEAYVTHRQAGKVSVIDAKSYKVVKTFDTPTHPNSLALSADGKTLYVSVKQKSTKQQEATQPDDVIRIAL”, the “total protein half-life in vivo” value worked out at 5.6 ± 0.52 h under setting [5]; 5.877 ± 0.042 h under setting [6]; 5.99 ± 0.71 h under setting [7]; 5.44 ± 0.31 h under setting [8]; 5.53 ± 0.97 h under setting [9]; 3.14 ± 0.065 h under setting [1]. The “total protein half-life in vivo” value by setting is: under setting [2], 6.05 ± 0.6 h; under setting [3], 12.2 ± 1.1 h; under setting [4], 5.63 ± 0.093 h; under setting [12], 11.5 ± 1.1 h; under setting [10], 5.44 ± 0.17 h; under setting [11], 11.4 ± 0.18 h.
